Results: patent US20060029943A1

Biological target: HLA class I on primary cervical cancer cells CA1 and CA2 (haplotype HLA A1) (human)
Assay: cell-based or functional assay

In the case of “Mab specific for monomorphic HLA class I W6/32 (antibody)”, the percent killing of CA1 target, AAV/E6/Neo (purified virus) plus anti-class I antibodies (36.1+/-1.4% without antibody) is reported as 0.4%.
